Laboratory results published in IntAct's records for PubMed 21399639.

Target: T1, ikkb_human IKBKB (UniProt O14920)
T1 sequence: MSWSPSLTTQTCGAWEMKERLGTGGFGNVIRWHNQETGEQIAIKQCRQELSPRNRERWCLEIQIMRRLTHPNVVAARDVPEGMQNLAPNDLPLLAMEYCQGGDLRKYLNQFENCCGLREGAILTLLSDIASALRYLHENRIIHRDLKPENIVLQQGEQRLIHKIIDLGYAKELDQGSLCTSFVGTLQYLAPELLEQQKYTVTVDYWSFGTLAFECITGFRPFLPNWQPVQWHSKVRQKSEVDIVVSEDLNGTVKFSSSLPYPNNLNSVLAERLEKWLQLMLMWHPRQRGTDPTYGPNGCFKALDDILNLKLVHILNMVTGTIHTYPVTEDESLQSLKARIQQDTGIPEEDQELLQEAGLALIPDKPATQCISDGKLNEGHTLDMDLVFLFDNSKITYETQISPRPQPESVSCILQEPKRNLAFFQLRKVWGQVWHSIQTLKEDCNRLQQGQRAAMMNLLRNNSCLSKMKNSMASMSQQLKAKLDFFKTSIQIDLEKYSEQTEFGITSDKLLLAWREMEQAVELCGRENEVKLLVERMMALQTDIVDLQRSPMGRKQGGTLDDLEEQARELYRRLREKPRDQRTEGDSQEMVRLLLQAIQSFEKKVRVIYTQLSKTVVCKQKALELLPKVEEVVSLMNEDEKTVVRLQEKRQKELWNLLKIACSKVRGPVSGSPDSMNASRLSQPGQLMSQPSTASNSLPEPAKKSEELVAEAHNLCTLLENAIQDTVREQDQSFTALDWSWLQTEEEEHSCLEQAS

**Q.** How did the “effect of a mutation on the interaction” value turn out when “Small ribosomal subunit protein uS3 (Homo sapiens) (from UniProt P23396) S209A” was run?
**A.** disrupting interaction
